± gives the uncertainty stated by the source.

This series can be described thus: amyloid nucleation score (Sup35N fusion, yeast selection) (log enrichment); library NNK1; higher = more nucleation; inactive = no reads after selection. In outline:
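Nucleation score: DiMSum log enrichment of output over input reads, centred on the mode score of non-aggregating sequences. Only sequences with at least 100 input reads were kept. Reads came from Illumina sequencing of plasmid inserts before and after 7 days of growth at 30°C without adenine and uracil, in psi-negative yeast expressing Sup35N fused to peptides of 20 random codons after 24 hours of induction with 100 μM copper sulfate.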
Take VFHSMC: the amyloid nucleation score worked out at 0.761 ± 0.39. The same measure for VFTHAFNMLCVFYTSQGLKR: 5.35 ± 0.1; for WYDAK: 0.286 ± 0.36; for YSVINWFMVAYYRADRLVNG: -0.144 ± 1.2.

Regarding STCSPKELQFMSYVCWVKFC, the amyloid nucleation score came out at 3.32 ± 0.11. Then NDDYHTLSQCACSFALRADG, with 1.08 ± 0.54; and ESQLVTAYEH, with 0.324 ± 1.1; and AQKCPALYRLMNMPEKEKVG, with 0.18 ± 0.43.

For SMVSFII, the amyloid nucleation score is -0.278 ± 0.72. For the substance IVTRWY, the amyloid nucleation score was -0.257 ± 0.21. Then SCMPHYEFMWRGAQAPWGLD, with 0.183 ± 0.5; and RVEVSGVLALANPLVPF, with 0.92 ± 0.6. In the case of LRCYEDLFVGLAHGRMRYTG, the amyloid nucleation score was -0.561 ± 1.7. Regarding VLFIWTLF, the amyloid nucleation score was 0.341 ± 0.26. For SANCIWFFL, the amyloid nucleation score amounted to 7.105 ± 0.071. On to SSAELFREPFQVNRCNCEGW, for which the amyloid nucleation score came out at 0.774 ± 0.47. The same measure for IGCSCNPYGTFWG: 5.93 ± 0.066. In turn, RPCIWFGTTCFYCTVFN showed an amyloid nucleation score of 5.76 ± 0.061. Then LTSQSLVVNFLLYCTG, with 1.1 ± 0.85; and ASIYCWLLNRHLDDDFLWLS, with -0.702 ± 1.9.

With LSPRSSA, the amyloid nucleation score is -0.322 ± 0.65. For CVHYLYEILQGILLNYSFLL, the amyloid nucleation score was -0.737 ± 0.4.

With FDHSG, the amyloid nucleation score entry was “inactive”. For NTESLEFRSKKGGNCRAGLS, the amyloid nucleation score stood at 0.495 ± 0.97. The same measure for IGFPRLTSEDS: 0.755 ± 0.4; for STMRLPWPGFRVHSL: 0.901 ± 0.65; for TLVYY: 0.296 ± 0.47.

The values above are taken from the supplement of paper PMC12042874.
